Legend:
HLA-A*03:01 [1] = experiment: IEDB peptide-MHC binding, purified MHC/competitive/fluorescence; filed as Kd, often an IC50 or EC50 that approximates it; ≥ and ≤ were set here for values at or beyond the usual limits of such assays; details: source organism: Human immunodeficiency virus 1
HLA-A*11:01 [2] = experiment: as above; details: source organism: Human immunodeficiency virus 1
HLA-A*26:02 = experiment: as above
HLA-A*26:03 [3] = experiment: as above; details: source organism: Human immunodeficiency virus 1
HLA-A*30:01 = experiment: as above; details: source organism: Human immunodeficiency virus 1
HLA-A*31:01 [4] = experiment: as above; details: source organism: Human immunodeficiency virus 1
HLA-B*08:02 [5] = experiment: as above; details: source organism: Human immunodeficiency virus 1
HLA-B*08:03 [6] = experiment: as above; details: source organism: Human immunodeficiency virus 1
HLA-B*15:02 = experiment: IEDB peptide-MHC binding, purified MHC/direct/fluorescence; filed as Kd, often an IC50 or EC50 that approximates it; ≥ and ≤ were set here for values at or beyond the usual limits of such assays; details: source organism: Cryptosporidium parvum Iowa II
HLA-B*46:01 = experiment: as above; details: source organism: Neogale vison
HLA-A*02:01 [7] = experiment: IEDB peptide-MHC binding, purified MHC/competitive/radioactivity; filed as Kd, often an IC50 or EC50 that approximates it; ≥ and ≤ were set here for values at or beyond the usual limits of such assays; details: source organism: Homo sapiens
HLA-A*02:07 = experiment: as above; details: source organism: Homo sapiens
HLA-A*29:02 = experiment: as above; details: source organism: Homo sapiens
HLA-B*57:01 [8] = experiment: as above; details: source organism: Homo sapiens
HLA-B*58:01 [9] = experiment: as above; details: source organism: Homo sapiens
HLA-A*01:01 = experiment: IEDB peptide-MHC binding, purified MHC/direct/fluorescence; filed as Kd, often an IC50 or EC50 that approximates it; ≥ and ≤ were set here for values at or beyond the usual limits of such assays; details: source organism: Cryptosporidium parvum
HLA-A*02:01 [10] = experiment: as above; details: source organism: Cryptosporidium parvum
HLA-A*03:01 [11] = experiment: as above; details: source organism: Cryptosporidium parvum
HLA-A*11:01 [12] = experiment: as above; details: source organism: Cryptosporidium parvum
HLA-A*26:01 = experiment: as above; details: source organism: Cryptosporidium parvum Iowa II
HLA-A*26:03 [13] = experiment: as above; details: source organism: Cryptosporidium parvum Iowa II
HLA-A*31:01 [14] = experiment: as above; details: source organism: Cryptosporidium parvum
HLA-A*68:02 = experiment: as above; details: source organism: Cryptosporidium parvum
HLA-A*69:01 = experiment: as above; details: source organism: Cryptosporidium parvum
HLA-B*07:02 = experiment: as above; details: source organism: Cryptosporidium parvum
HLA-B*08:02 [15] = experiment: as above; details: source organism: Cryptosporidium parvum Iowa II
HLA-B*08:03 [16] = experiment: as above; details: source organism: Cryptosporidium parvum Iowa II
HLA-B*15:01 = experiment: as above; details: source organism: Cryptosporidium parvum
HLA-B*15:09 = experiment: as above; details: source organism: Cryptosporidium parvum Iowa II
HLA-B*18:01 = experiment: as above; details: source organism: Cryptosporidium parvum
HLA-B*27:02 = experiment: as above; details: source organism: Cryptosporidium parvum Iowa II
HLA-B*27:05 = experiment: as above; details: source organism: Cryptosporidium parvum
HLA-B*48:01 = experiment: as above; details: source organism: Cryptosporidium parvum
HLA-B*57:01 [17] = experiment: as above; details: source organism: Cryptosporidium parvum
HLA-B*58:01 [18] = experiment: as above; details: source organism: Cryptosporidium parvum
HLA-B*73:01 = experiment: as above
HLA-B*15:17 = experiment: IEDB peptide-MHC binding, purified MHC/competitive/fluorescence; filed as Kd, often an IC50 or EC50 that approximates it; ≥ and ≤ were set here for values at or beyond the usual limits of such assays; details: source organism: Cryptosporidium parvum Iowa II
HLA-B*39:01 = experiment: as above; details: source organism: Cryptosporidium parvum Iowa II
HLA-C*06:02 = experiment: IEDB peptide-MHC binding, purified MHC/direct/fluorescence; filed as Kd, often an IC50 or EC50 that approximates it; ≥ and ≤ were set here for values at or beyond the usual limits of such assays; details: source organism: Escherichia coli K-12
HLA-A*32:07 = experiment: IEDB peptide-MHC binding, purified MHC/competitive/fluorescence; filed as Kd, often an IC50 or EC50 that approximates it; ≥ and ≤ were set here for values at or beyond the usual limits of such assays; details: source organism: Escherichia coli K-12
HLA-B*15:42 = experiment: as above; details: source organism: Escherichia coli K-12
HLA-B*27:20 = experiment: as above; details: source organism: Escherichia coli K-12
HLA-B*40:13 = experiment: as above; details: source organism: Escherichia coli K-12
HLA-B*45:06 = experiment: as above; details: source organism: Escherichia coli K-12
HLA-B*83:01 = experiment: as above; details: source organism: Escherichia coli K-12

With IATLYCVHQK the Kd (HLA-A*03:01 [1]) was ≥ 20 µM, the Kd (HLA-A*11:01 [2]) was 1.71 µM and the Kd (HLA-A*26:02; source organism: Human immunodeficiency virus 1) was ≥ 20 µM. For the same sequence, the Kd (HLA-A*26:03 [3]) was ≥ 20 µM, the Kd (HLA-A*30:01) was ≥ 5 µM and the Kd (HLA-A*31:01 [4]) was ≥ 20 µM. For the same sequence, the Kd (HLA-B*08:02 [5]) was ≥ 20 µM and the Kd (HLA-B*08:03 [6]) was ≥ 20 µM.

KMKEIAEAY was tested, and the Kd (HLA-B*15:02) was 0.184 µM, the Kd (HLA-B*46:01) was 0.446 µM and the Kd (HLA-A*02:01 [7]) was ≥ 78.1 µM. For the same sequence, the Kd (HLA-A*02:07) was ≥ 53.4 µM, the Kd (HLA-A*29:02) was 0.0889 µM and the Kd (HLA-B*57:01 [8]) was 2.87 µM. The Kd (HLA-B*58:01 [9]) was 2.03 µM.

For RKWGLDFCY, the Kd (HLA-A*01:01) was ≥ 20 µM, the Kd (HLA-A*02:01 [10]) was ≥ 20 µM and the Kd (HLA-A*03:01 [11]) was ≥ 20 µM. The Kd (HLA-A*11:01 [12]) was ≥ 20 µM, the Kd (HLA-A*26:01) was ≥ 20 µM and the Kd (HLA-A*26:03 [13]) was ≥ 20 µM. For the same sequence, the Kd (HLA-A*31:01 [14]) was ≥ 20 µM, the Kd (HLA-A*68:02) was ≥ 20 µM and the Kd (HLA-A*69:01) was ≥ 20 µM. The Kd (HLA-B*07:02) was 9 µM, the Kd (HLA-B*08:02 [15]) was ≥ 20 µM and the Kd (HLA-B*08:03 [16]) was ≥ 20 µM. For the same sequence, the Kd (HLA-B*15:01) was 2.08 µM, the Kd (HLA-B*15:09) was ≥ 20 µM and the Kd (HLA-B*18:01) was ≥ 20 µM. For the same sequence, the Kd (HLA-B*27:02) was 7 µM, the Kd (HLA-B*27:05) was 0.0555 µM and the Kd (HLA-B*48:01) was ≥ 20 µM. The Kd (HLA-B*57:01 [17]) was ≥ 20 µM, the Kd (HLA-B*58:01 [18]) was ≥ 20 µM and the Kd (HLA-B*73:01; source organism: Cryptosporidium parvum) was ≥ 20 µM. For the same sequence, the Kd (HLA-A*26:02; source organism: Cryptosporidium parvum Iowa II) was ≥ 20 µM, the Kd (HLA-B*15:17) was ≥ 20 µM and the Kd (HLA-B*39:01) was ≥ 20 µM.

With RQWGMGFLL the Kd (HLA-B*73:01; source organism: Escherichia coli O157:H7) was 6 µM, the Kd (HLA-C*06:02) was 1.71 µM and the Kd (HLA-A*32:07) was 0.0012 µM. The Kd (HLA-B*15:42) was ≥ 5 µM, the Kd (HLA-B*27:20) was ≤ 0.0001 µM and the Kd (HLA-B*40:13) was ≤ 0.001 µM. For the same sequence, the Kd (HLA-B*45:06) was ≥ 5 µM and the Kd (HLA-B*83:01) was ≥ 5 µM.
